Data published in publication PMC9482650, “Quantitative fragmentomics allow affinity mapping of interactomes” (Nature Communications, 2022).

Legend:
Assay in all cases: holdup assay
Set-up in all cases: key: below the threshold = too weak to quantify, mostly under pKd 3.1 to 4
FRMPD2_1, Q68DX3 = biological target: FRMPD2_1, Q68DX3
GRIP2_3, Q9C0E4 = biological target: GRIP2_3, Q9C0E4
RHPN1, Q8TCX5 = biological target: T1, RHPN1, Q8TCX5
T1 sequence (Q8TCX5 508-602, limits assumed, looked up): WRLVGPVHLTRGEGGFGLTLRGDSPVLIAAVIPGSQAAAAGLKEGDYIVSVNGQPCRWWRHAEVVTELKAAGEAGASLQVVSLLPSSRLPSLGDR

GRIP2_7, Q9C0E4 = biological target: GRIP2_7, Q9C0E4
DLG1_2, Q12959 = biological target: DLG1_2, Q12959
ARHGAP21, Q5T5U3 = biological target: T2, ARHGAP21, Q5T5U3
T2 sequence (Q5T5U3 45-169, limits assumed, looked up): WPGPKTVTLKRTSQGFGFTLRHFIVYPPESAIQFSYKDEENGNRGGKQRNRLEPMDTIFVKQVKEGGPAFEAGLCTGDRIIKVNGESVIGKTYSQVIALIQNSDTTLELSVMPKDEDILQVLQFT

SCRIB_1, Q14160 = biological target: SCRIB_1, Q14160
LAP2, Q96RT1 = biological target: LAP2, Q96RT1
DLG2_2, Q15700 = biological target: DLG2_2, Q15700
MPP6, Q9NZW5 = biological target: T3, MPP6, Q9NZW5
T3 sequence (Q9NZW5 125-219, limits assumed, looked up): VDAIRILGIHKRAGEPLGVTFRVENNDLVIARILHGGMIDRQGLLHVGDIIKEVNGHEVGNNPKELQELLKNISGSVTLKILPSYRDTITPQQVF

LDB3, O75112 = biological target: LDB3, O75112
Inadl_9, Q8NI35 = biological target: Inadl_9, Q8NI35
DLG5_1, Q8TDM6 = biological target: DLG5_1, Q8TDM6
SNX27, Q96L92 = biological target: SNX27, Q96L92
DFNB31_3, Q9P202 = biological target: T4, DFNB31_3, Q9P202
T4 sequence (Q9P202 811-907, limits assumed, looked up): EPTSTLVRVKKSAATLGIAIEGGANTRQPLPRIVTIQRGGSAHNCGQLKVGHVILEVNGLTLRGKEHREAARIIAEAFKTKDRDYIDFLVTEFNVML

Inadl_8, Q8NI35 = biological target: Inadl_8, Q8NI35
HTRA4, P83105 = biological target: T5, HTRA4, P83105
T5 sequence (P83105 378-476, limits assumed, looked up): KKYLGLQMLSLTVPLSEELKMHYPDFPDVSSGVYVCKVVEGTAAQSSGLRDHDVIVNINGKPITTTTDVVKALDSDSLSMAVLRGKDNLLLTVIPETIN

DLG4_3, P78352 = biological target: DLG4_3, P78352
MAST2, Q6P0Q8 = biological target: MAST2, Q6P0Q8
GRIP1_2, Q9Y3R0 = biological target: T6, GRIP1_2, Q9Y3R0
T6 sequence (Q9Y3R0 145-248, limits assumed, looked up): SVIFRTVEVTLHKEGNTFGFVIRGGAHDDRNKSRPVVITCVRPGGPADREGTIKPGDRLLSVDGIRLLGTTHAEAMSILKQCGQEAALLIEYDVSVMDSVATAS

APBA3_1, O96018 = biological target: T7, APBA3_1, O96018
T7 sequence (O96018 389-490, limits assumed, looked up): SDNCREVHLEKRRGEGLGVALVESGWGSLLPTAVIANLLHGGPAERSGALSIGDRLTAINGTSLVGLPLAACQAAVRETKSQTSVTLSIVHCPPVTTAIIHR

IL16_4, Q14005 = biological target: IL16_4, Q14005
MAGI2_2, Q86UL8 = biological target: MAGI2_2, Q86UL8
DVL3, Q92997 = biological target: T8, DVL3, Q92997
T8 sequence (Q92997 244-331, limits assumed, looked up): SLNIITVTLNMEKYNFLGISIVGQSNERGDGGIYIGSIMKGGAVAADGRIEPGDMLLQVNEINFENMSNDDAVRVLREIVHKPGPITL

Inadl_2, Q8NI35 = biological target: Inadl_2, Q8NI35
FRMPD3, Q5JV73 = biological target: FRMPD3, Q5JV73
GRIP2_6, Q9C0E4 = biological target: GRIP2_6, Q9C0E4
LRRC7, Q96NW7 = biological target: T9, LRRC7, Q96NW7
T9 sequence (Q96NW7 1440-1537, limits assumed, looked up): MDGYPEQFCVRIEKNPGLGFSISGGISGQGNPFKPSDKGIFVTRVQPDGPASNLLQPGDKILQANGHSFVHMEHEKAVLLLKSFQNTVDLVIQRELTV

[1] = plain residues with an end cap or a label only (N-terminal biotin on a linker: ado-ado)
[2] = plain residues with an end cap or a label only (N-terminal biotin on a linker: ahx)
[3] = plain residues with an end cap or a label only (N-terminal biotin on a linker: ttds)

DLG2_2, Q15700, sequence (Q15700 189-283): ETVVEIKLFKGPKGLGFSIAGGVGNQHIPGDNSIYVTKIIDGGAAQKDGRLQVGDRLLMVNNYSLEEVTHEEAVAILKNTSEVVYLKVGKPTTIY
GRIP2_6, Q9C0E4, sequence (Q9C0E4 648-740): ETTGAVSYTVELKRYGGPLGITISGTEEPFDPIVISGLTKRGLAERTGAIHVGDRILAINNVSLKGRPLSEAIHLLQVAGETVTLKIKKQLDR
FRMPD3, Q5JV73, sequence (Q5JV73 12-100): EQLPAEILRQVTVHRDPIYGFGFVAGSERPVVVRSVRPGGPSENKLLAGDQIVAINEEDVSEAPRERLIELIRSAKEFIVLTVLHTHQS
Inadl_9, Q8NI35, sequence (Q8NI35 1530-1615): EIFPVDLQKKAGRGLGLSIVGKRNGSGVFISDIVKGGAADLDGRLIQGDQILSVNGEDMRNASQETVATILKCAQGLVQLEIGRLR
DLG5_1, Q8TDM6, sequence (Q8TDM6 617-713): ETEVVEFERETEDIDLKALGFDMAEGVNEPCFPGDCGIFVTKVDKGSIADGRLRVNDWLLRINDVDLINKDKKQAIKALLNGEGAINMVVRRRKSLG
LAP2, Q96RT1, sequence (Q96RT1 other isoform, or with tags, fused parts or gaps): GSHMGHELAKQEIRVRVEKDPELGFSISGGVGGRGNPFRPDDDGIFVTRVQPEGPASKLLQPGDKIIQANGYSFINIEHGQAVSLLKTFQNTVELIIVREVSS
GRIP2_7, Q9C0E4, sequence (Q9C0E4 934-1023): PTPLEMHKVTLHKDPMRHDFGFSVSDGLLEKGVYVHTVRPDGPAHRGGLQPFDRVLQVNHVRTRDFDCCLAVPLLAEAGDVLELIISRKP
SCRIB_1, Q14160, sequence (Q14160 718-814): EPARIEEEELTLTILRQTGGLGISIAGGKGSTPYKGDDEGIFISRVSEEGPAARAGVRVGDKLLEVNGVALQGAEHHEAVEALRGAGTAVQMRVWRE
Inadl_8, Q8NI35, sequence (Q8NI35 1425-1530): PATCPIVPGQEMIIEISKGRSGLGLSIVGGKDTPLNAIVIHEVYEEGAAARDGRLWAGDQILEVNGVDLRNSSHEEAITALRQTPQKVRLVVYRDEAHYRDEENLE
Inadl_2, Q8NI35, sequence (Q8NI35 238-335): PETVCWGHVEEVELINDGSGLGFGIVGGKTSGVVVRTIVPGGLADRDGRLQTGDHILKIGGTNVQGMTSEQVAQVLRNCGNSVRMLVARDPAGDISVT
DLG4_3, P78352, sequence (P78352 306-403): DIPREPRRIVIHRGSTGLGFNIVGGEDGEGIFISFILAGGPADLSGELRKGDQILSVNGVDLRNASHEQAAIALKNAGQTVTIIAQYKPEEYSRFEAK
FRMPD2_1, Q68DX3, sequence (Q68DX3 770-861): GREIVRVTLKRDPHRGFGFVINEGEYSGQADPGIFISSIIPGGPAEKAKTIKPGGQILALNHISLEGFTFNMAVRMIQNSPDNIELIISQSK
MAGI2_2, Q86UL8, sequence (Q86UL8 410-522): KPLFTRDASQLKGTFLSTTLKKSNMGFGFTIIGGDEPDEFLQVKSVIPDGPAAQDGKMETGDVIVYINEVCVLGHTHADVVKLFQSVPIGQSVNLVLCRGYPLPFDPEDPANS
MAST2, Q6P0Q8, sequence (Q6P0Q8 1099-1202): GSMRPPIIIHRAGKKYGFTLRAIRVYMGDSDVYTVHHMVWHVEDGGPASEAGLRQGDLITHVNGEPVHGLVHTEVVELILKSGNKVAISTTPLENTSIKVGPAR
LDB3, O75112, sequence (O75112 1-94): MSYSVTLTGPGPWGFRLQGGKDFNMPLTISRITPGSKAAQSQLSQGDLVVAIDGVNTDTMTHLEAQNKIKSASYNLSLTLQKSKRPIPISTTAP
GRIP2_3, Q9C0E4, sequence (Q9C0E4 238-339): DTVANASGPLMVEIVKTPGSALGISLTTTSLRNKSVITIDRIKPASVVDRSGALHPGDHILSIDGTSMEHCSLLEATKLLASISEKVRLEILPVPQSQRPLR
IL16_4, Q14005, sequence (Q14005 1229-1329): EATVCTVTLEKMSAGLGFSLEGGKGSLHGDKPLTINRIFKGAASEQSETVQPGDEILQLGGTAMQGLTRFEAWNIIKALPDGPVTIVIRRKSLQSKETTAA
DLG1_2, Q12959, sequence (Q12959 314-412): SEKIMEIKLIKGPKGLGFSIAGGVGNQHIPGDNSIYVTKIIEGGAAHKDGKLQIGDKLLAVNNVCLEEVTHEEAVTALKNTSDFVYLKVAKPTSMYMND

B1: U2AF2, P26368 (peptide)
chain: PDSYHRRDFW
B1 was tested, and the pKd (FRMPD2_1, Q68DX3; [1]) was “below the threshold”, the pKd (GRIP2_3, Q9C0E4; [1]) was “below the threshold” and the pKd (RHPN1, Q8TCX5; [1]) was “below the threshold”. The pKd (GRIP2_7, Q9C0E4; [1]) was “below the threshold”, the pKd (DLG1_2, Q12959; [1]) was “below the threshold” and the pKd (ARHGAP21, Q5T5U3; [1]) was 4.08. For the same binder, the pKd (SCRIB_1, Q14160; [1]) was “below the threshold”, the pKd (LAP2, Q96RT1; [1]) was “below the threshold” and the pKd (DLG2_2, Q15700; [1]) was “below the threshold”. The pKd (MPP6, Q9NZW5; [1]) was “below the threshold”, the pKd (LDB3, O75112; [1]) was “below the threshold” and the pKd (Inadl_9, Q8NI35; [1]) was “below the threshold”. The pKd (DLG5_1, Q8TDM6; [1]) was “below the threshold”, the pKd (SNX27, Q96L92; [1]) was 3.61 and the pKd (DFNB31_3, Q9P202; [1]) was “below the threshold”. The pKd (Inadl_8, Q8NI35; [1]) was 3.48, the pKd (HTRA4, P83105; [1]) was 3.99 and the pKd (DLG4_3, P78352; [1]) was “below the threshold”. The pKd (MAST2, Q6P0Q8; [1]) was “below the threshold”, the pKd (GRIP1_2, Q9Y3R0; [1]) was “below the threshold” and the pKd (APBA3_1, O96018; [1]) was “below the threshold”. The pKd (IL16_4, Q14005; [1]) was 3.68, the pKd (MAGI2_2, Q86UL8; [1]) was “below the threshold” and the pKd (DVL3, Q92997; [1]) was “below the threshold”. For the same binder, the pKd (Inadl_2, Q8NI35; [1]) was “below the threshold”, the pKd (FRMPD3, Q5JV73; [1]) was “below the threshold” and the pKd (GRIP2_6, Q9C0E4; [1]) was “below the threshold”. For the same binder, the pKd (LRRC7, Q96NW7; [1]) was “below the threshold”.

B2: ARVCF, O00192 (peptide)
chain: AKPQPVDSWV
B2 was tested, and the pKd (FRMPD2_1, Q68DX3; [2]) was “below the threshold”, the pKd (GRIP2_3, Q9C0E4; [2]) was “below the threshold” and the pKd (RHPN1, Q8TCX5; [2]) was 3.8. For the same binder, the pKd (GRIP2_7, Q9C0E4; [2]) was 4.13, the pKd (DLG1_2, Q12959; [2]) was 4.75 and the pKd (ARHGAP21, Q5T5U3; [2]) was “below the threshold”. For the same binder, the pKd (SCRIB_1, Q14160; [2]) was 3.74, the pKd (LAP2, Q96RT1; [2]) was 5.73 and the pKd (DLG2_2, Q15700; [2]) was “below the threshold”. For the same binder, the pKd (MPP6, Q9NZW5; [2]) was “below the threshold”, the pKd (LDB3, O75112; [2]) was “below the threshold” and the pKd (Inadl_9, Q8NI35; [2]) was 3.74. The pKd (DLG5_1, Q8TDM6; [2]) was “below the threshold”, the pKd (SNX27, Q96L92; [2]) was 5.15 and the pKd (DFNB31_3, Q9P202; [2]) was “below the threshold”. For the same binder, the pKd (Inadl_8, Q8NI35; [2]) was 3.87, the pKd (HTRA4, P83105; [2]) was “below the threshold” and the pKd (DLG4_3, P78352; [2]) was “below the threshold”. The pKd (MAST2, Q6P0Q8; [2]) was 3.86, the pKd (GRIP1_2, Q9Y3R0; [2]) was “below the threshold” and the pKd (APBA3_1, O96018; [2]) was “below the threshold”. For the same binder, the pKd (IL16_4, Q14005; [2]) was “below the threshold”, the pKd (MAGI2_2, Q86UL8; [2]) was “below the threshold” and the pKd (DVL3, Q92997; [2]) was 3.96. The pKd (Inadl_2, Q8NI35; [2]) was “below the threshold”, the pKd (FRMPD3, Q5JV73; [2]) was “below the threshold” and the pKd (GRIP2_6, Q9C0E4; [2]) was “below the threshold”. It also gave a pKd (LRRC7, Q96NW7; [2]) of 4.94.

B3: ARHGAP6, O43182 (peptide)
chain: NPDALPETLV
With B3 the pKd (FRMPD2_1, Q68DX3; [3]) was “below the threshold”, the pKd (GRIP2_3, Q9C0E4; [3]) was “below the threshold” and the pKd (RHPN1, Q8TCX5; [3]) was 4.61. The pKd (GRIP2_7, Q9C0E4; [3]) was “below the threshold”, the pKd (DLG1_2, Q12959; [3]) was 4.49 and the pKd (ARHGAP21, Q5T5U3; [3]) was “below the threshold”. The pKd (SCRIB_1, Q14160; [3]) was “below the threshold”, the pKd (LAP2, Q96RT1; [3]) was 3.8 and the pKd (DLG2_2, Q15700; [3]) was 4.23. For the same binder, the pKd (MPP6, Q9NZW5; [3]) was “below the threshold”, the pKd (LDB3, O75112; [3]) was “below the threshold” and the pKd (Inadl_9, Q8NI35; [3]) was 3.98. The pKd (DLG5_1, Q8TDM6; [3]) was “below the threshold”, the pKd (SNX27, Q96L92; [3]) was 4.7 and the pKd (DFNB31_3, Q9P202; [3]) was 4.1. For the same binder, the pKd (Inadl_8, Q8NI35; [3]) was “below the threshold”, the pKd (HTRA4, P83105; [3]) was “below the threshold” and the pKd (DLG4_3, P78352; [3]) was 3.46. For the same binder, the pKd (MAST2, Q6P0Q8; [3]) was 4.65, the pKd (GRIP1_2, Q9Y3R0; [3]) was “below the threshold” and the pKd (APBA3_1, O96018; [3]) was “below the threshold”. The pKd (IL16_4, Q14005; [3]) was “below the threshold”, the pKd (MAGI2_2, Q86UL8; [3]) was 4.1 and the pKd (DVL3, Q92997; [3]) was “below the threshold”. For the same binder, the pKd (Inadl_2, Q8NI35; [3]) was 3.93, the pKd (FRMPD3, Q5JV73; [3]) was “below the threshold” and the pKd (GRIP2_6, Q9C0E4; [3]) was “below the threshold”. The pKd (LRRC7, Q96NW7; [3]) was “below the threshold”.

B4: DLL1, O00548 (peptide)
chain: KDECVIATEV
In the case of B4, the pKd (FRMPD2_1, Q68DX3; [2]) is reported as “below the threshold”, the pKd (GRIP2_3, Q9C0E4; [2]) is reported as “below the threshold” and the pKd (RHPN1, Q8TCX5; [2]) is reported as 3.95. The pKd (GRIP2_7, Q9C0E4; [2]) was “below the threshold”, the pKd (DLG1_2, Q12959; [2]) was 4.37 and the pKd (ARHGAP21, Q5T5U3; [2]) was “below the threshold”. For the same binder, the pKd (SCRIB_1, Q14160; [2]) was “below the threshold”, the pKd (LAP2, Q96RT1; [2]) was 3.59 and the pKd (DLG2_2, Q15700; [2]) was 3.62. The pKd (MPP6, Q9NZW5; [2]) was “below the threshold”, the pKd (LDB3, O75112; [2]) was “below the threshold” and the pKd (Inadl_9, Q8NI35; [2]) was 3.87. The pKd (DLG5_1, Q8TDM6; [2]) was “below the threshold”, the pKd (SNX27, Q96L92; [2]) was 4.36 and the pKd (DFNB31_3, Q9P202; [2]) was “below the threshold”. For the same binder, the pKd (Inadl_8, Q8NI35; [2]) was 3.64, the pKd (HTRA4, P83105; [2]) was 3.53 and the pKd (DLG4_3, P78352; [2]) was “below the threshold”. The pKd (MAST2, Q6P0Q8; [2]) was 5.17, the pKd (GRIP1_2, Q9Y3R0; [2]) was “below the threshold” and the pKd (APBA3_1, O96018; [2]) was “below the threshold”. The pKd (IL16_4, Q14005; [2]) was “below the threshold”, the pKd (MAGI2_2, Q86UL8; [2]) was “below the threshold” and the pKd (DVL3, Q92997; [2]) was “below the threshold”. For the same binder, the pKd (Inadl_2, Q8NI35; [2]) was “below the threshold”, the pKd (FRMPD3, Q5JV73; [2]) was “below the threshold” and the pKd (GRIP2_6, Q9C0E4; [2]) was “below the threshold”. For the same binder, the pKd (LRRC7, Q96NW7; [2]) was “below the threshold”.
